# Source: patent US20020058247A1 (TRIPEP, published 2002)
# Legend:
# [1] = target: T1, Full length recombinant HBcAg (rHBcAg) encompassing residues 1-183 (hepatitis B virus, UniProt P03146 1-183); assay: competition EIA, HBcAg coated 1 ug/ml, peptide 200 ug/ml before mAb 4-2 (competitor); OD of bound mAb
# T1 construct: range 1-183; also called hepatitis B virus core antigen
# [2] = target: T2, truncated recombinant form of HBeAg containing nine residues of pre-core and the 150 first residues of HBcAg (hepatitis B virus, UniProt P03146 1-150); assay: EIA, support-bound peptide, HBeAg 10 ug/ml
# T2 construct: domain: nine residues of pre-core;range 1-150; also called hepatitis B virus e antigen
# T2 sequence (P03146 1-150): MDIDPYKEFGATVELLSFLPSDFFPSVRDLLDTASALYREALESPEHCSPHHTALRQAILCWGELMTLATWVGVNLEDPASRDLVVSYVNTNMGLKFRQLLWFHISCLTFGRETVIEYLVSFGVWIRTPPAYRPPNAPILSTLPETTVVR
# [3] = target: T1, Full length recombinant HBcAg (rHBcAg) …; assay: EIA, support-bound peptide, HBcAg 2 ug/well
# [4] = target: T1, Full length recombinant HBcAg (rHBcAg) …; assay: EIA, support-bound peptide, HBcAg 1.25 ug/ml
# [5] = target: T1, Full length recombinant HBcAg (rHBcAg) …; assay: competition EIA, HBcAg coated 1 ug/ml, peptide 50 ug/ml before mAb 4-2 (competitor); OD of bound mAb
# [6] = target: T1, Full length recombinant HBcAg (rHBcAg) …; assay: EIA, support-bound peptide, HBcAg 0.67 ug/ml
# [7] = target: T1, Full length recombinant HBcAg (rHBcAg) …; assay: EIA, peptide coated 25 ug/ml, HBcAg 10 ug/ml
# [8] = target: T1, Full length recombinant HBcAg (rHBcAg) …; assay: competition EIA, HBcAg coated 5 ug/ml, peptide 6.25 ug/ml together with mAb 4-2 (competitor); OD of bound mAb
# [9] = target: T1, Full length recombinant HBcAg (rHBcAg) …; assay: EIA, support-bound peptide, HBcAg 10 ug/ml
# [10] = target: T1, Full length recombinant HBcAg (rHBcAg) …; assay: EIA, support-bound peptide, HBcAg 5 ug/ml
# [11] = target: T1, Full length recombinant HBcAg (rHBcAg) …; assay: EIA, support-bound peptide, HBcAg 5 ug/ml; remark: listed apart in the source
# [12] = target: T1, Full length recombinant HBcAg (rHBcAg) …; assay: competition EIA, peptide added to HBcAg before mAb 4-2 (competitor); OD of bound mAb
# T1 sequence (P03146 whole entry, the tested form may be a part): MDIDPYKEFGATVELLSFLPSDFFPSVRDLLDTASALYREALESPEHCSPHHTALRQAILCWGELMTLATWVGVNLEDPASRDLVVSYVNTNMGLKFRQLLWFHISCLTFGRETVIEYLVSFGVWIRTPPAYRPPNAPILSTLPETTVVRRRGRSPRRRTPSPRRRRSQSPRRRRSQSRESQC
Binder,OD at 490 nm [1] [OD],OD [2] [OD],OD at 405 nm [3] [OD],OD [4] [OD],OD at 490 nm [5] [OD],OD [6] [OD],OD [7] [OD],OD at 490 nm [8] [OD],OD [9] [OD],OD [10] [OD],OD at 490 nm [11] [OD],OD at 490 nm [12] [OD]
LAVSLGQRATISCRASQSVS [LAVSLGQRATISCRASQSVS (SEQ. ID. No. 16)],0.299,0.06,3.11,0.079,0.364,0.028,0.276,0.979,0.872,0.501,,
CKASGYSFTGYNMNWVKQSH (also called Peptide # 26) [CKASGYSFTGYNMNWVKQSH (SEQ. ID. No. 29)],0.201,0.091,2.29,0.038,0.337,0.028,0.181,1.2,0.601,0.245,,
ISCRASQSVSTSSYSYMHWY [ISCRASQSVSTSSYSYMHWY (SEQ. ID. No. 17)],0.305,0.246,2.48,0.117,0.402,0.039,0.636,1.26,1.15,0.633,1.94,
VKPGASVKLSCKASGYIFTS (also called Peptide # 2; Pept. #2) [VKPGASVKLSCKASGYIFTS (SEQ. ID. No. 5)],0.078,0.222,3.69,0.155,0.188,0.034,1.04,0.867,1.69,0.989,3.26,0.453
VKPGASVKISCKASGYSFTG (also called Peptide # 25) [VKPGASVKISCKASGYSFTG (SEQ. ID. No. 28)],0.173,0.096,3.13,0.058,0.312,0.036,0.569,1.18,0.897,0.359,,
